Several values for one entry are separate records, joined by “and”; a condition that tells them apart may be missing. Identical values can stand only once.
Tests used:
Kap114pΔY933 = target: T1, Kap114pΔY933 (S. cerevisiae, UniProt P53067 1-1004, ΔY933); experiment: ITC; Kap114p (wild type or mutant) 50 uM in the sample cell, partner 500 uM in the syringe; 25 °C; 20 mM HEPES pH 7.4, 150 mM NaCl; triplicate; conditions: both partners purified
T1 construct: Kap114p, S. cerevisiae, full length with residue Y933 deleted; also called Kap114p(DY933); source: E. coli (Rosetta strain), purified (GST resin, MonoQ, Superdex 200)
T1 sequence (looked up): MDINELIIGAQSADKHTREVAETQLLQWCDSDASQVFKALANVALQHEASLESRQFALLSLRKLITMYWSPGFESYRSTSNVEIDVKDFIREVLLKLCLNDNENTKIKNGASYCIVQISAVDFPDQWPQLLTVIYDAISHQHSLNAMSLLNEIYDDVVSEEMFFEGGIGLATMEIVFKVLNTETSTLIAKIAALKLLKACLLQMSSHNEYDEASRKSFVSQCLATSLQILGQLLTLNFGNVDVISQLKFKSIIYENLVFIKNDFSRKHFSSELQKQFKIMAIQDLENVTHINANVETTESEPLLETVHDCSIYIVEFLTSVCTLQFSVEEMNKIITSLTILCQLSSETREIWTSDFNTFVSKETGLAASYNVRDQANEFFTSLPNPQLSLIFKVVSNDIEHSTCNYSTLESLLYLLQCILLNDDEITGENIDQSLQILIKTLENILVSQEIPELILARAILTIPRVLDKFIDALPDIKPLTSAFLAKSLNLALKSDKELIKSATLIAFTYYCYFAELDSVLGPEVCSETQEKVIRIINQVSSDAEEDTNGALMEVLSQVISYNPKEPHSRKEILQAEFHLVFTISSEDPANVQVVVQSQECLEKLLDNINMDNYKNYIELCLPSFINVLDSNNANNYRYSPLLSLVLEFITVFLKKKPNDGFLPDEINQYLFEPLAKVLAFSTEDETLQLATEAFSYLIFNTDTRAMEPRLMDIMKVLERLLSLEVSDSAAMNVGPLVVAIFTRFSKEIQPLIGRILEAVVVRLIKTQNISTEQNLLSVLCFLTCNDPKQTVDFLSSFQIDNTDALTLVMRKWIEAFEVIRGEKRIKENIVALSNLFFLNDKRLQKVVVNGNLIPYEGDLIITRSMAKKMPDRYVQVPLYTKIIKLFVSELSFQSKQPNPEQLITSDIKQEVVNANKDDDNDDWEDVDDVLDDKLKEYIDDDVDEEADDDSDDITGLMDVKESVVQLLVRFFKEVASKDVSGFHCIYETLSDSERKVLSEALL

Kap114pΔ(848-875) = target: T2, Kap114pΔ(848-875) (S. cerevisiae, UniProt P53067 1-1004, Δ(848-875)); experiment: as above; conditions: both partners purified
T2 construct: also called Kap114p(D848-875); source: E. coli (Rosetta strain), purified (GST resin, MonoQ, Superdex 200)
T2 sequence (looked up): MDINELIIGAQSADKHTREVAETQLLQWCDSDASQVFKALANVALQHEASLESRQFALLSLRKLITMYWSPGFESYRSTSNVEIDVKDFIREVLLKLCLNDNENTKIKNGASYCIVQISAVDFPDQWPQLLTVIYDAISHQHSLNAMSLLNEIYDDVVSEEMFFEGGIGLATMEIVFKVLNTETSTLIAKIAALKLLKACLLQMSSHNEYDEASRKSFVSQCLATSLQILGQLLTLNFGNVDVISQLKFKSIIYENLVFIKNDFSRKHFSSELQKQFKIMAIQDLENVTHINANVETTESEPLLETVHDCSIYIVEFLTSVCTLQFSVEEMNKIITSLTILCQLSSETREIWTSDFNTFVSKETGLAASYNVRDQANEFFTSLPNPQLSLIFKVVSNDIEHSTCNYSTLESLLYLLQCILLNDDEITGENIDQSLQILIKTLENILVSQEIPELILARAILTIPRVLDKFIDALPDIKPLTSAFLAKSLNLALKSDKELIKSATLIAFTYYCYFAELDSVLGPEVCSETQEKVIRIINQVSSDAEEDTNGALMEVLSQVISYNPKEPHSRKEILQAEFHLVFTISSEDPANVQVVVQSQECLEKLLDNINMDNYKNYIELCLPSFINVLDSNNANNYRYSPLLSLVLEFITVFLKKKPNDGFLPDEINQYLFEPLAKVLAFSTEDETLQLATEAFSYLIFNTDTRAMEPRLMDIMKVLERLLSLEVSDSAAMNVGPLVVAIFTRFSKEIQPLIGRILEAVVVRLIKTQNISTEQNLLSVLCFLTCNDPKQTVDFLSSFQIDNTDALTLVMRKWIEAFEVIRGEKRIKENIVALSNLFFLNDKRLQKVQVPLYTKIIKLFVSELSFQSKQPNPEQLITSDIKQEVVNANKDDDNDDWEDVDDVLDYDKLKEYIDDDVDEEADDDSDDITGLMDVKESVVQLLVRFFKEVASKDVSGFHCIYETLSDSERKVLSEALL

Ka (Kap114pΔY933): 1.91e+08 M⁻¹ and 1.5e+08 M⁻¹ and 8.48e+07 M⁻¹
Kd (Kap114pΔY933): 7.7 nM
Ka (Kap114pΔ(848-875)): 4.16e+08 M⁻¹ and 7.85e+08 M⁻¹ and 6.96e+08 M⁻¹
Kd (Kap114pΔ(848-875)): 1.7 nM
B1: core domain of yTBP (a.a. 61-240) (domain or fragment, S. cerevisiae, UniProt P13393 61-240, looked up)
chain: SGIVPTLQNIVATVTLGCRLDLKTVALHARNAEYNPKRFAAVIMRIREPKTTALIFASGKMVVTGAKSEDDSKLASRKYARIIQKIGFAAKFTDFKIQNIVGSCDVKFPIRLEGLAFSHGTFSSYEPELFPGLIYRMVKPKIVLLIFVSGKIVLTGAKQREEIYQAFEAIYPVLSEFRKM
notes: 61-240; also called yTBP^C; yTBPc; source: E. coli (Rosetta strain), purified (Ni-NTA, HiTrap SP, Superdex 75); not shown: 6xHis, N-terminal, cleaved

From PMC10491584, “Structural convergence endows nuclear transport receptor Kap114p with a transcriptional repressor function toward TATA-binding protein” (Nature Communications, 2023)
